Assay results taken from paper PMC8967717 (Nature, 2022).

Experiments:
[1] = biological target: SARS-CoV-2 wild-type spike N-terminal domain (SARS-CoV-2, WT (MN908947), UniProt P0DTC2); assay: ELISA; conditions: both partners purified
[2] = biological target: SARS-CoV-2 wild-type spike receptor-binding domain (SARS-CoV-2, WT (MN908947), UniProt P0DTC2); assay: BLI; conditions: both partners purified

B1: XGv289 (antibody, V domains shown)
VH: QVQLVQSGAEVKKPGASLKVSCRASGYTFTSHFIHWVRQAPGQGLEWMGIINPSGGASYAQNFRDRVTMTTDPSTSTVYMELGSLRSEDTAVYYCARAEGSSWLGWFDPWGQGTLVTVSS
VL: QSVLTQPPSASGTPGQRVTIPCSGSSSNIGNNYVYWYQQLPGTAPKLLVYGNNQRPSGVPDRFSVSKSGTSASLAISGLRSEDEADYYCAAWDDGLSGSGWVFGGGTKLTVL
binding result [1]: no binding | Kd [2]: 0.515 nM

B2: XGv282 (antibody, V domains shown)
VH: QVQLVQSGAEVKKPGSSVKVSCKASGDTFSSYTFSWVRQAPGQGLEWMGRSIPIVGKAIYAQEFQGRVTISADRSTTTVYMELSSLRSDDTAVYYCARDQSGFDFFYYDHWGQGTLVAVSS
VL: QSVLTQPPSASGTPGQRVTISCSGSGSNIGSNTINWYQQLPGTAPKVLIYRNNERPSGVPDRFSGSKSGTSASLTISGLQSEDEAYYHCAAWDDSLNGPVFGGGTKLTVL
binding result [1]: no binding | Kd [2]: 0.344 nM
